This passage reports Km and Vmax results from publication PMC11399303, “Recombinant expression and characterization of the endochitinase Chit36-TA from Trichoderma asperellum in Komagataella phaffii for chitin degradation of black soldier fly exuviae” (Bioprocess and Biosystems Engineering, 2024).

Substrate in the data set: CC(=O)N[C@H]1[C@H](Oc2ccc3c(C)cc(=O)oc3c2)O[C@H](CO)[C@@H](O[C@@H]2O[C@H](CO)[C@@H](O[C@@H]3O[C@H](CO)[C@@H](O)[C@H](O)[C@H]3NC(C)=O)[C@H](O)[C@H]2NC(C)=O)[C@@H]1O
Kind of data set: fluorometric 4-methylumbelliferone release, nonlinear regression. It is filed as biochemical, Trichoderma asperellum. To be noted: 50 mM sodium acetate, pH 4.5, 40 °C, 5-70 µM substrate. An excerpt: fluorometric 4-methylumbelliferone release, nonlinear regression on Chit36-TA

B1: Chit36-TA (Trichoderma asperellum CBS 433.97) (protein)
chain: QNATCALKGKPAGKVLMGYWENWDGAANGVHPGFGWTPIENPIIKQNGYNVINAAFPVILSDGTALWENDMAPDTQVATPAEMCEAKAAGATILLSIGGATAGIDLSSSAVADKFIATIVPILKQYNFDGIDIDIETGLTNSGNINTLSTSQTNLIRIIDGVLAQMPSNFGLTMAPETAYVTGGSITYGSIWGAYLPIIQKYVQNGRLWWLNMQYYNGDMYGCSGDSYAAGTVQGFIAQTDCLNAGLTIQGTTIKVPYDMQVPGLPAQSGAGGGYMNPSLVGQAWDHYNGALKGLMTWSINWDGAGNWTFGDNLLTRIG
notes: mature protein without native signal peptide, C-terminal His6 (kept), codon-optimized synthetic gene, secreted from Komagataella phaffii BG10, Ni-NTA purified, N-glycosylated (43 kDa)
The term Km denotes the concentration of substrate that gives half-maximal velocity. For orientation: Vmax means the top rate of the reaction or transport when substrate is in excess. For B1, the Km stood at 289 µM and the Vmax was determined as 3 µmol/min/mg.
